Data reported in patent publication US20140147418A1.

Target: B7.1 on mouse macrophages (CRL-2751) (mouse) (UniProt Q00609)
Assay: flow cytometry on mouse macrophages stained with FITC anti-B7-1 after medium from naive HEK-293 cells

Chain of UniProt Q00609 (Q00609 38-306): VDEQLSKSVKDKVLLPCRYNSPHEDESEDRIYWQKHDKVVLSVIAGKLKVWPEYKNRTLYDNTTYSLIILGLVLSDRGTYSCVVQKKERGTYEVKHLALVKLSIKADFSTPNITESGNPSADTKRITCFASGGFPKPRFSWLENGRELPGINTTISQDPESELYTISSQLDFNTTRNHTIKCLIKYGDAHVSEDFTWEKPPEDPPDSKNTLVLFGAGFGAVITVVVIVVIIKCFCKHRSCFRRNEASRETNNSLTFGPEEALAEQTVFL

## Armenian hamster IgG FITC-conjugated anti B7-1 (Santa Cruz Biotechnology) (antibody)
  percent of macrophages B7-positive in the absence of CTLA4IgG: 18%
